Test results taken from article doi:10.1101/2022.01.11.475808, “Hypoxia Dynamically Regulates DBC1 Ubiquitination and Stability by SIAH2 and OTUD5 in Breast Cancer Progression” (bioRxiv, 2022).

What was measured:
His-DBC1 = target: T1, His-DBC1 (human, UniProt Q8N163 1-923); assay: pull-down; GST-SIAH2 and His-DBC1 proteins generated in E. coli, incubated in vitro overnight, then GST beads for 2 h at 4 °C; details: both partners purified
T1 construct: Deleted in Breast Cancer 1 (DBC1, CCAR2), human, bacterially expressed as His-DBC1; also called His-tagged DBC1; source: E. coli BL21, purified

[1] = target: T2, N-terminal half of His-DBC1 (1-461) (human, UniProt Q8N163 1-461); assay: as above; details: both partners purified
T2 construct: source: E. coli, bacterially expressed
T2 sequence (Q8N163 1-461): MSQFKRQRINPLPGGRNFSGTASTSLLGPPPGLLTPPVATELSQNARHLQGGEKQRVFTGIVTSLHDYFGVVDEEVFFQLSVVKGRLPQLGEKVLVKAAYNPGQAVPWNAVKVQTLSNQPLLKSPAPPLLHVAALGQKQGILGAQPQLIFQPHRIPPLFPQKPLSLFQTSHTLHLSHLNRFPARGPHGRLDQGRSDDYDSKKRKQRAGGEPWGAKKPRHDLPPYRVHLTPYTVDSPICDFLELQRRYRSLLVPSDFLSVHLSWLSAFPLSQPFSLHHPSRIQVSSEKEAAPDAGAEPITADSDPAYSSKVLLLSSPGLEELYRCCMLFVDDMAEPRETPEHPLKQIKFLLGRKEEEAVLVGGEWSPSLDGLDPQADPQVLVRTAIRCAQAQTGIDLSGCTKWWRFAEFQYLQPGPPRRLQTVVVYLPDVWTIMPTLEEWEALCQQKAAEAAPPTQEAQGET

T1 sequence (Q8N163 whole entry): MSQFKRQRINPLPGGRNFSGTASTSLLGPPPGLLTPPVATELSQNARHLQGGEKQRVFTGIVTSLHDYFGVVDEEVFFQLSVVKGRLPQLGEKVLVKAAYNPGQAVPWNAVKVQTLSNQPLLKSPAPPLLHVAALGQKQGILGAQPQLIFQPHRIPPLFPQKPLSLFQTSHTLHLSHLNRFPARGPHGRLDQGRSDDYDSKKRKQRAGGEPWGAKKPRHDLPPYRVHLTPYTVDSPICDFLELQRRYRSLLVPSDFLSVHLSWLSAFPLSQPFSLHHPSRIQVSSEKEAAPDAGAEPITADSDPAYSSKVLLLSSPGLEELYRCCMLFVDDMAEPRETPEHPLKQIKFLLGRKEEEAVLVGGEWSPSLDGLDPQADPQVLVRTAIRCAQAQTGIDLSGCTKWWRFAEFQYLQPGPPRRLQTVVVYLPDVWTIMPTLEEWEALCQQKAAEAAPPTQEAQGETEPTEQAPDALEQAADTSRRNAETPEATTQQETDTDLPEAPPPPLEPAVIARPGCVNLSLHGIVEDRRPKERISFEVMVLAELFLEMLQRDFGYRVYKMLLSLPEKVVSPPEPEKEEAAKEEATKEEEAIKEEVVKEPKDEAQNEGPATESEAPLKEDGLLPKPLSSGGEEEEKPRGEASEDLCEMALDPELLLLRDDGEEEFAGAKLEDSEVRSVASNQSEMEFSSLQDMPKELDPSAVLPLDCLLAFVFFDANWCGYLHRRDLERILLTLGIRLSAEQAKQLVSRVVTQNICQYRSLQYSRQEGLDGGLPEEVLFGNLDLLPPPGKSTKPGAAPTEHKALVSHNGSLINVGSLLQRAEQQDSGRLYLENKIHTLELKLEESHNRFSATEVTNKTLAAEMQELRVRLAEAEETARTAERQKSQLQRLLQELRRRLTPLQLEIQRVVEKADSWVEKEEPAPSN

B1: GST-SIAH2 (enzyme, human, UniProt O43255 1-324, looked up)
chain: MSRPSSTGPSANKPCSKQPPPQPQHTPSPAAPPAAATISAAGPGSSAVPAAAAVISGPGGGGGAGPVSPQHHELTSLFECPVCFDYVLPPILQCQAGHLVCNQCRQKLSCCPTCRGALTPSIRNLAMEKVASAVLFPCKYATTGCSLTLHHTEKPEHEDICEYRPYSCPCPGASCKWQGSLEAVMSHLMHAHKSITTLQGEDIVFLATDINLPGAVDWVMMQSCFGHHFMLVLEKQEKYEGHQQFFAIVLLIGTRKQAENFAYRLELNGNRRRLTWEATPRSIHDGVAAAIMNSDCLVFDTAIAHLFADNGNLGINVTISTCCP
notes: E3 ubiquitin ligase SIAH2, human, bacterially expressed as GST-SIAH2; also called purified glutathione S-transferase (GST) SIAH2; source: E. coli BL21, purified
- binding result (His-DBC1): binds
- binding result [1]: binds
